Assay results: publication doi:10.1101/2022.11.04.515028

Target: GST-ELOB/ELOC complex (UniProt Q15370)
Assay: fluorescence polarisation

Substance | Ki [nM] | Kd [nM]
EPOPwt (peptide) | 2.35 | –
EPOPwt-FAM (peptide) | – | 0.45
